Measured values: patent US20110118447A1
Numbering of substitutions follows the chain as printed. Names and notes keep the numbering of the source. Each block holds one binder with its values, some of them ahead of it.

How the values were obtained:
[1] = target: binding partner of C5A (XPA23); test: Biacore, K-off
[2] = target: binding partner of C5A (XPA23); test: Biacore
[3] = target: binding partner (antigen) of C5A (XPA23); test: Biacore, K-off, fold vs original

- fold difference in affinity vs original [1]: 0.11 fold
- fold difference in affinity vs original [2]: 0.11 fold
B1: C5A (XPA23) VH S105T (antibody, V domains shown)
VH: EVQLLESGGGLVQPGGSLRLSCAASGFTFSKYFMFWVRQAPGKGLEWVSVISPSGGMTRYADSVKGRFTISRDNSKNTLYLQMNSLRAEDTAVYYCARVGYGGNTDYWGQGTLVTVSS
VL: DIQMTQSPSSVSASVGDRLTIICRASQDINRWLAWYQQTPGNAPKLLIHSATSLQSGVPSRFSGSGSGTDFTLTINSLQPEDFATYYCQQADSFPLTFGGGTKVEIK

- fold difference in affinity vs original [2]: 0.78 fold
- fold difference in affinity vs original [3]: 0.78 fold
B2: C5A (XPA23) VH F35L (antibody, V domains shown)
VH: B1 VH with F35L, T105S
VL: B1 VL

- fold difference in affinity vs original [1]: 0.85 fold
- fold affinity vs original [2]: 0.85 fold
B3: C5A (XPA23) VH Y107R (antibody, V domains shown)
VH: B1 VH with T105S, Y107R
VL: B1 VL

- fold difference in affinity vs original [2]: 0.94 fold
- fold difference in affinity vs original [3]: 0.94 fold
B4: C5A (XPA23) VH I51G (antibody, V domains shown)
VH: B1 VH with I51G, T105S
VL: B1 VL

- fold difference in affinity vs original [1]: 0.9 fold
- fold affinity vs original [2]: 0.9 fold
B5: C5A (XPA23) VH Y107E (antibody, V domains shown)
VH: B1 VH with T105S, Y107E
VL: B1 VL

- fold difference in affinity vs original [2]: 0.09 fold
- fold difference in affinity vs original [3]: 0.09 fold
B6: C5A (XPA23) VH V50A (antibody, V domains shown)
VH: B1 VH with V50A, T105S
VL: B1 VL

- fold difference in affinity vs original [1]: 0.06 fold
- fold affinity vs original [2]: 0.06 fold
B7: C5A (XPA23) VH D106R (antibody, V domains shown)
VH: B1 VH with T105S, D106R
VL: B1 VL

- fold difference in affinity vs original [2]: 0.04 fold
- fold difference in affinity vs original [3]: 0.04 fold
B8: C5A (XPA23) VH S52V (antibody, V domains shown)
VH: B1 VH with S52V, T105S
VL: B1 VL

- fold difference in affinity vs original [2]: 0.09 fold
- fold difference in affinity vs original [3]: 0.09 fold
B9: C5A (XPA23) VH V50L (antibody, V domains shown)
VH: B1 VH with V50L, T105S
VL: B1 VL

- fold difference in affinity vs original [1]: 0.82 fold
- fold affinity vs original [2]: 0.82 fold
B10: C5A (XPA23) VH Y107K (antibody, V domains shown)
VH: B1 VH with T105S, Y107K
VL: B1 VL

- fold difference in affinity vs original [2]: 0.85 fold
- fold difference in affinity vs original [3]: 0.85 fold
B11: C5A (XPA23) VH F35I (antibody, V domains shown)
VH: B1 VH with F35I, T105S
VL: B1 VL

- fold difference in affinity vs original [2]: 0.99 fold
- fold difference in affinity vs original [3]: 0.99 fold
B12: C5A (XPA23) VH I51V (antibody, V domains shown)
VH: B1 VH with I51V, T105S
VL: B1 VL

- fold difference in affinity vs original [1]: 0.98 fold
- fold affinity vs original [2]: 0.98 fold
B13: C5A (XPA23) VH S105Q (antibody, V domains shown)
VH: B1 VH with T105Q
VL: B1 VL

- fold difference in affinity vs original [1]: 0.02 fold
- fold affinity vs original [2]: 0.02 fold
B14: C5A (XPA23) VH D106Q (antibody, V domains shown)
VH: B1 VH with T105S, D106Q
VL: B1 VL

- fold difference in affinity vs original [1]: 0.04 fold
- fold affinity vs original [2]: 0.04 fold
B15: C5A (XPA23) VH D106K (antibody, V domains shown)
VH: B1 VH with T105S, D106K
VL: B1 VL

- fold difference in affinity vs original [2]: 0.79 fold
- fold difference in affinity vs original [3]: 0.79 fold
B16: C5A (XPA23) VH I51L (antibody, V domains shown)
VH: B1 VH with I51L, T105S
VL: B1 VL

- fold difference in affinity vs original [1]: 0.02 fold
- fold affinity vs original [2]: 0.02 fold
B17: C5A (XPA23) VH D106H (antibody, V domains shown)
VH: B1 VH with T105S, D106H
VL: B1 VL

- fold difference in affinity vs original [1]: 0.04 fold
- fold affinity vs original [2]: 0.04 fold
B18: C5A (XPA23) VH D106E (antibody, V domains shown)
VH: B1 VH with T105S, D106E
VL: B1 VL

- fold difference in affinity vs original [1]: 0.85 fold
- fold affinity vs original [2]: 0.85 fold
B19: C5A (XPA23) VH S105N (antibody, V domains shown)
VH: B1 VH with T105N
VL: B1 VL

- fold affinity vs original [2]: 0.9 fold
- fold difference in affinity vs original [3]: 0.9 fold
B20: C5A (XPA23) VH I51F (antibody, V domains shown)
VH: B1 VH with I51F, T105S
VL: B1 VL

- fold difference in affinity vs original [1]: 0.87 fold
- fold affinity vs original [2]: 0.87 fold
B21: C5A (XPA23) VH Y107Q (antibody, V domains shown)
VH: B1 VH with T105S, Y107Q
VL: B1 VL

- fold difference in affinity vs original [1]: 0.07 fold
- fold affinity vs original [2]: 0.07 fold
B22: C5A (XPA23) VH D106N (antibody, V domains shown)
VH: B1 VH with T105S, D106N
VL: B1 VL

- fold difference in affinity vs original [2]: 0.05 fold
- fold difference in affinity vs original [3]: 0.05 fold
B23: C5A (XPA23) VH S52P (antibody, V domains shown)
VH: B1 VH with S52P, T105S
VL: B1 VL

- fold difference in affinity vs original [1]: 0.83 fold
- fold difference in affinity vs original [2]: 0.83 fold
B24: C5A (XPA23) VH Y107T (antibody, V domains shown)
VH: B1 VH with T105S, Y107T
VL: B1 VL

- fold difference in affinity vs original [2]: 1.1 fold
- fold difference in affinity vs original [3]: 1.1 fold
B25: C5A (XPA23) VH P53V (antibody, V domains shown)
VH: B1 VH with P53V, T105S
VL: B1 VL

- fold difference in affinity vs original [2]: 0.89 fold
- fold difference in affinity vs original [3]: 0.89 fold
B26: C5A (XPA23) VH F35V (antibody, V domains shown)
VH: B1 VH with F35V, T105S
VL: B1 VL

- fold difference in affinity vs original [2]: 0.05 fold
- fold difference in affinity vs original [3]: 0.05 fold
B27: C5A (XPA23) VH S52A (antibody, V domains shown)
VH: B1 VH with S52A, T105S
VL: B1 VL

- fold difference in affinity vs original [2]: 1.04 fold
- fold difference in affinity vs original [3]: 1.04 fold
B28: C5A (XPA23) VH I51A (antibody, V domains shown)
VH: B1 VH with I51A, T105S
VL: B1 VL

- fold difference in affinity vs original [2]: 0.05 fold
- fold difference in affinity vs original [3]: 0.05 fold
B29: C5A (XPA23) VH P53A (antibody, V domains shown)
VH: B1 VH with P53A, T105S
VL: B1 VL

- fold difference in affinity vs original [1]: 0.85 fold
- fold affinity vs original [2]: 0.85 fold
B30: C5A (XPA23) VH Y107D (antibody, V domains shown)
VH: B1 VH with T105S, Y107D
VL: B1 VL

- fold difference in affinity vs original [2]: 0.02 fold
- fold difference in affinity vs original [3]: 0.02 fold
B31: C5A (XPA23) VH P53G (antibody, V domains shown)
VH: B1 VH with P53G, T105S
VL: B1 VL

- fold difference in affinity vs original [2]: 0.03 fold
- fold difference in affinity vs original [3]: 0.03 fold
B32: C5A (XPA23) VH V50G (antibody, V domains shown)
VH: B1 VH with V50G, T105S
VL: B1 VL

- fold difference in affinity vs original [2]: 0.06 fold
- fold difference in affinity vs original [3]: 0.06 fold
B33: C5A (XPA23) VH F35P (antibody, V domains shown)
VH: B1 VH with F35P, T105S
VL: B1 VL

- fold difference in affinity vs original [1]: 0.89 fold
- fold affinity vs original [2]: 0.89 fold
B34: C5A (XPA23) VH Y107S (antibody, V domains shown)
VH: B1 VH with T105S, Y107S
VL: B1 VL

- fold difference in affinity vs original [2]: 0.1 fold
- fold difference in affinity vs original [3]: 0.1 fold
B35: C5A (XPA23) VH V50I (antibody, V domains shown)
VH: B1 VH with V50I, T105S
VL: B1 VL

- fold difference in affinity vs original [2]: 0.07 fold
- fold difference in affinity vs original [3]: 0.07 fold
B36: C5A (XPA23) VH F35A (antibody, V domains shown)
VH: B1 VH with F35A, T105S
VL: B1 VL

- fold difference in affinity vs original [2]: 0.03 fold
- fold difference in affinity vs original [3]: 0.03 fold
B37: C5A (XPA23) VH S52G (antibody, V domains shown)
VH: B1 VH with S52G, T105S
VL: B1 VL

- fold difference in affinity vs original [2]: 0.04 fold
- fold difference in affinity vs original [3]: 0.04 fold
B38: C5A (XPA23) VH F35G (antibody, V domains shown)
VH: B1 VH with F35G, T105S
VL: B1 VL

- fold difference in affinity vs original [1]: 0.03 fold
- fold affinity vs original [2]: 0.03 fold
B39: C5A (XPA23) VH D106S (antibody, V domains shown)
VH: B1 VH with T105S, D106S
VL: B1 VL
